# Changes are numbered by the printed parent chain. Names and notes keep the numbering of the source.
# B1: 6His-Xenopus Arpp19 (isoform 1), wild type Y68A (protein)
# chain: MSGENQETKAQEESSALEQKEIDDKVVSPEKSEEIKLKARYPNLGPKPGGSDFLRKRLQKGVSKKQKAFDSGDYNMAKAKMKNKQLPTAASDKTEVTGDHIPTPQDLPQRKPSLVASKLAG
# B2: 6His-Xenopus Arpp19 (isoform 1), wild type D70A (protein)
# chain: B1 chain with A68Y, D70A
# B3: 6His-Xenopus Arpp19 (isoform 1), wild type Y74A (protein)
# chain: B1 chain with A68Y, Y74A
# B4: 6His-Xenopus Arpp19 (isoform 1), wild type G72A (protein)
# chain: B1 chain with A68Y, G72A
# B5: 6His-Xenopus Arpp19 (isoform 1), wild type K67A (protein)
# chain: B1 chain with K67A, A68Y
# B6: 6His-Xenopus Arpp19 (isoform 1), wild type S71T (protein)
# chain: B1 chain with A68Y, S71T
# B7: 6His-Xenopus Arpp19 (isoform 1), wild type F69A (protein)
# chain: B1 chain with A68Y, F69A
# B8: 6His-Xenopus Arpp19 (isoform 1), wild type Q66A (protein)
# chain: B1 chain with Q66A, A68Y
# B9: 6His-Xenopus Arpp19 (isoform 1), wild type D73A (protein)
# chain: B1 chain with A68Y, D73A
# B10: 6His-Xenopus Arpp19 (isoform 1), wild type G72A; S71A (protein)
# chain: B1 chain with A68Y, S71A, G72A
# B11: 6His-Xenopus Arpp19 (isoform 1), wild type G72A; S71T (protein)
# chain: B1 chain with A68Y, S71T, G72A
# B12: 6His-Xenopus Arpp19 (isoform 1), wild type T103A; P104A (protein)
# chain: B1 chain with A68Y, T103A, P104A
# B13: 6His-Xenopus Arpp19 (isoform 1), wild type T103A; P104A; D106A; L107A; P108A; Q109A (protein)
# chain: B1 chain with A68Y, T103A, P104A, D106A, L107A, P108A, Q109A
# Target: T1, PP2A-B55, Q7ZX64
# T1 chain: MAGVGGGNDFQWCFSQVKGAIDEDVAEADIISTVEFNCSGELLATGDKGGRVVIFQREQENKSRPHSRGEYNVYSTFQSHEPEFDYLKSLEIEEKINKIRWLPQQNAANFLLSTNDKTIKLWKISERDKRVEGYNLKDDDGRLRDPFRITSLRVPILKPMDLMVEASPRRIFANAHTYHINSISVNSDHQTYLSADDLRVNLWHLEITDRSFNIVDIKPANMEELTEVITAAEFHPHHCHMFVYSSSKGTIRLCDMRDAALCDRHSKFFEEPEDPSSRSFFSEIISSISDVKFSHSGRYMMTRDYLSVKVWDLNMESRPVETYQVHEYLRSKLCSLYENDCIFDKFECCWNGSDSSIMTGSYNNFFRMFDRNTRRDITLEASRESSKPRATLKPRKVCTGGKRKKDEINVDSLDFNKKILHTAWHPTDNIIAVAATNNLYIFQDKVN
# Assay: His pull-down, western blot quantification
# Conditions: chain shown with the change; 20 ng His-Arpp19; panel titled Phospho-Arpp19; parent: est. 0.98; read off a plot
row,Binder,response
1,B1,0.16 AU
2,B2,0.14 AU
3,B3,0.09 AU
4,B4,1.4 AU
5,B5,0.52 AU
6,B6,0.21 AU
7,B7,0.04 AU
8,B8,0.86 AU
9,B9,0.16 AU

# Same assay, conditions: chain shown with the change; Arpp19 thio-phosphorylated at S67/S71 (ATPγS and recombinant Gwl kinase); parent: est. 1.0; read off a plot
row,Binder,response
1,B1,0.18 AU
2,B2,0.04 AU
3,B3,0.11 AU
4,B6,0.13 AU
5,B7,0.08 AU
6,B9,0.15 AU

# Same assay, conditions: chain shown with the change;; parent: est. 0.83; read off a plot
row,Binder,response
1,B10,0.16 AU
2,B4,1.2 AU
3,B11,0.08 AU

# Same assay, conditions: chain shown with the change;; parent: est. 0.90; read off a plot
row,Binder,response
1,B12,0.57 AU
2,B13,0.36 AU
